How the values were obtained:
[1] = test system: proteinase(s) in EDTA plasma from LTR (kallikrein-like peptidase); assay: Peptidase activity in EDTA plasma from liver transplant recipients (LTR), chromogenic substrate, OD 405 nm; assay type: biochemical, human; conditions: for % Residual activity, LTR 1 / % Residual activity, LTR 2 / % Residual activity, LTR 3: substrate AGLTR-pNA; for Inhibition of the LTR plasma peptidase activity, in words: text on Tables 2 and 3, concentrations as there
Description: Blood samples were drawn into 5 ml EDTA tubes (Venoject; Terumo Corp., Elkton, Md.). The plasma was collected immediately by centrifugation at 2,000×g for 15 min at 4° C. The plasma samples were either processed immediately for analysis or stored at −70° C. Frozen samples were thawed at 4° C. prior to analysis.
(§1) The peptidase activity in plasma samples or of the purified enzymes were routinely determined at 37° C. in a 96-well plate. Each well contained 0.5 mM substrate in 100 μl of Tris-buffered saline (TBS)-EDTA buffer (50 mM Tris/150 mM NaCl/10 mM EDTA, pH 7.8) and the reaction was monitored using a microplate reader (Titertek Multiscan, Labsystems, Needham Heights, Mass.).
(§2) The enzymes C1s (100 nM), plasm in (100 nM), thrombin (100 nM), plasma kallikrein (20 nM), β-FXIIa (100 nM), trypsin (16 nM) or LTR EDTA plasma samples were incubated for 60 min at 4° C. with TBS-EDTA buffer containing either LBTI (1 mg/ml), SBTI (I mg/ml), aprotinin (0.075 mg/ml), benzamidine (50 mM), or Futhan (0.1 mg/ml), before mixing with the substrate. EDTA plasma samples from LTR were diluted 10 or 20-fold with TBS-EDTA. The chromogenic substrate AGLTR-pNA was used for all enzymes and LTR samples except C1s where the substrate S2288 was used. Based on the initial rate of increase in OD at 405 nm, the residual free enzyme level was calculated and expressed as a percentage of total activity without inhibitor added.
(§3) Ten-fold diluted normal EDTA plasma was added to each enzyme. The enzymes C1s (100 nM), plasmin (100 nM), thrombin (100 nM), plasma kallikrein (20 nM), β-FXIIa (100 nM), trypsin (16 nM) or LTR EDTA plasma samples were incubated for 60 min at 4° C. with TBS-EDTA buffer containing either C1INH (40 μg/ml), bdellin (50 μg/ml), hirudin (50 U/ml), PPACK 11(10 μM), or CTI (100 μg/ml), before adding the substrate. LTR samples were 10 or 20-fold diluted with TBS-EDTA. The chromogenic substrate AGLTR-pNA was used for all enzymes and LTP samples except C1s where the substrate S2288 was used. Based on the initial rate of increase in OD at 405 nm, the residual free enzyme was calculated and expressed as a percentage of total activity determined without inhibitor added.

C1s = molecular target: T1, C1s (Homo sapiens, UniProt P09871); assay: Peptidase (amidolytic) activity of purified C1s, chromogenic substrate, 96-well plate, OD 405 nm; assay type: biochemical; conditions: for % Residual activity, C1s: substrate S2288; for Inhibition of C1s, in words: text on Tables 2 and 3, concentrations as there
T1 construct: purchased Advanced Research Technologies (San Diego, Calif.)
T1 sequence (P09871 438-688 limits assumed): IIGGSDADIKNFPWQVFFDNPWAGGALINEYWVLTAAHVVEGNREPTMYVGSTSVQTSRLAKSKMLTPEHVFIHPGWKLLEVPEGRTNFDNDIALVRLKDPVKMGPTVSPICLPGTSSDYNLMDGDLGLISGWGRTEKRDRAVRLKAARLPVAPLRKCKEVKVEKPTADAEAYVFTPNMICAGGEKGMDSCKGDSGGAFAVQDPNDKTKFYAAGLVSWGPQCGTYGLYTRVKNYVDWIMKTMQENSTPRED
T1 sequence (P09871 16-437 partner limits assumed): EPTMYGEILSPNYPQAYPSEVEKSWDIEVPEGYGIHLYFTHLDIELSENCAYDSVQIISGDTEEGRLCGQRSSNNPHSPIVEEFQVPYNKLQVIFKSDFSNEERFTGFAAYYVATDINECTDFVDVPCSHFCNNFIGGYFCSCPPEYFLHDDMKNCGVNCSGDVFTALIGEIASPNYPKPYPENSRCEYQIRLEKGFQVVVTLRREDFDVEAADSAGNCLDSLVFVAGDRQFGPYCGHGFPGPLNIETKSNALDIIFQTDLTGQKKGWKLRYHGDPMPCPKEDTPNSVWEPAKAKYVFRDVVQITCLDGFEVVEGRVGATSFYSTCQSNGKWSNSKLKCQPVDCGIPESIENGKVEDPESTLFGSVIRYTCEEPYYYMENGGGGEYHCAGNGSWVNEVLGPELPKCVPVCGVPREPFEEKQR
Description: as §1, §2, §3

plasma kallikrein = molecular target: T2, plasma kallikrein (Homo sapiens, UniProt P03952); assay: Peptidase (amidolytic) activity of purified plasma kallikrein, chromogenic substrate, OD 405 nm; assay type: biochemical; conditions: for % Residual activity, Plasma Kallikrein: substrate AGLTR-pNA; for Inhibition of purified plasma kallikrein activity, in words: text on Tables 2 and 3, concentrations as there
T2 construct: The light chain of kallikrein contains the enzymatic domain; purchased Calbiochem-Novabiochem Corp (La Jolla, Calif.)
Description: as §1
(§4) […] EDTA plasma samples from LTR were diluted 10 or 20-fold with TBS-EDTA. The chromogenic substrate AGLTR-pNA was used for all enzymes and LTR samples except C1s where the substrate S2288 was used. Based on the initial rate of increase in OD at 405 nm, the residual free enzyme level was calculated and expressed as a percentage of total activity without inhibitor added.
(§5) Ten-fold diluted normal EDTA plasma was added to each enzyme. […] LTR samples were 10 or 20-fold diluted with TBS-EDTA. The chromogenic substrate AGLTR-pNA was used for all enzymes and LTP samples except C1s where the substrate S2288 was used. Based on the initial rate of increase in OD at 405 nm, the residual free enzyme was calculated and expressed as a percentage of total activity determined without inhibitor added.

β-Factor XIIa (β-FXIIa) = molecular target: T3, β-Factor XIIa (β-FXIIa) (Homo sapiens, UniProt P00748); assay: Peptidase (amidolytic) activity of purified β-FXIIa, chromogenic substrate, OD 405 nm; assay type: biochemical; conditions: Table 2; β-FXIIa 100 nM, substrate AGLTR-pNA; 60 min at 4° C. with LBTI 1 mg/ml, SBTI I mg/ml, aprotinin 0.075 mg/ml, benzamidine 50 mM or Futhan 0.1 mg/ml
T3 construct: β-Factor XIIa (β-FXIIa) was kindly provided by Dr. Mary J. Heeb; gift of Dr. Mary J. Heeb, The Scripps Research Institute
Description: as §1, §4, §5

trypsin = assay: Peptidase (amidolytic) activity of purified trypsin, chromogenic substrate, OD 405 nm; assay type: biochemical; conditions: Table 2
Description: as §1, §2

plasmin = molecular target: T4, plasmin (Homo sapiens, UniProt P00747); assay: Peptidase (amidolytic) activity of purified plasmin, chromogenic substrate, OD 405 nm; assay type: biochemical; conditions: Table 2
T4 construct: purchased Calbiochem-Novabiochem Corp (La Jolla, Calif.)
Description: as §1, §2, §3

thrombin = molecular target: T5, thrombin (Homo sapiens, UniProt P00734); assay: Peptidase (amidolytic) activity of purified thrombin, chromogenic substrate, OD 405 nm; assay type: biochemical; conditions: Table 2; thrombin 100 nM, substrate AGLTR-pNA; 60 min at 4° C. with LBTI 1 mg/ml, SBTI I mg/ml, aprotinin 0.075 mg/ml, benzamidine 50 mM or Futhan 0.1 mg/ml
T5 construct: purchased Calbiochem-Novabiochem Corp (La Jolla, Calif.)

T2 sequence (P03952 391-638 limits assumed): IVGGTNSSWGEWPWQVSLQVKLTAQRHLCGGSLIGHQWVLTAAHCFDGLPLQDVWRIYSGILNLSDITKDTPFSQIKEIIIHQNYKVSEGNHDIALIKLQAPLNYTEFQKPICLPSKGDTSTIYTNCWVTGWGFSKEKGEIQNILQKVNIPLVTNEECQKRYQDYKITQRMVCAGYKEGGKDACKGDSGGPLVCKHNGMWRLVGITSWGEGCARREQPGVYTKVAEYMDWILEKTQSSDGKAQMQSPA
T2 sequence (P03952 20-390 partner limits assumed): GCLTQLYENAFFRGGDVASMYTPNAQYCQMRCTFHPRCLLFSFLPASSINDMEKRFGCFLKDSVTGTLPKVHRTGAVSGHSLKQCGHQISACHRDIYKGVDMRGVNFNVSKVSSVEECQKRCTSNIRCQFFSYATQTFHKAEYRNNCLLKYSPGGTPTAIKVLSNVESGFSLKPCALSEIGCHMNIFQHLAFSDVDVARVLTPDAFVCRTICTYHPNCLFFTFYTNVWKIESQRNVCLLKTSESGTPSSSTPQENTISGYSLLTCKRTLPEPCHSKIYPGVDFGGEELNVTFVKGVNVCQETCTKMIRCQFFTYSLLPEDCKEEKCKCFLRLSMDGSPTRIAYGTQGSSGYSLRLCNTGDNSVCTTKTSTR
T4 sequence (P00747 581-810 limits assumed, species assumed): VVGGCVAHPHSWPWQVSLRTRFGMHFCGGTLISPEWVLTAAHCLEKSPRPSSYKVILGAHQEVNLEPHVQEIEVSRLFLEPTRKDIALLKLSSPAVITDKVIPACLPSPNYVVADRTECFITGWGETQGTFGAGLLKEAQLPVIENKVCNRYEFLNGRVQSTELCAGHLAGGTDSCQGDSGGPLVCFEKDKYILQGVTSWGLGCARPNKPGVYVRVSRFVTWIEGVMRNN
T4 sequence (P00747 97-580 partner limits assumed, species assumed): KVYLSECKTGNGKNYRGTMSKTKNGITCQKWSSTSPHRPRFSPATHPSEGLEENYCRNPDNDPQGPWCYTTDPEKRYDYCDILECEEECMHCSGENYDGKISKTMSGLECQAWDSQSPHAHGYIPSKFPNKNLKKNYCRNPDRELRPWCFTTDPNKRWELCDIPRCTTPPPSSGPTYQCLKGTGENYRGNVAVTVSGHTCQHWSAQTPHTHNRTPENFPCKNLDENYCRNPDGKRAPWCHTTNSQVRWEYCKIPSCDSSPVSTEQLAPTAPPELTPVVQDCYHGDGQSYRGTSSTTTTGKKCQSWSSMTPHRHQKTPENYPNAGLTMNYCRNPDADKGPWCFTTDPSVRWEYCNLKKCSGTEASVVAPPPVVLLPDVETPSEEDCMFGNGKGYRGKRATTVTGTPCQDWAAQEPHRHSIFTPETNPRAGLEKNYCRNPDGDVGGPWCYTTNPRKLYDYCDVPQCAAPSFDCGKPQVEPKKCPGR
T3 sequence (P00748 373-615 limits assumed, other chains not shown): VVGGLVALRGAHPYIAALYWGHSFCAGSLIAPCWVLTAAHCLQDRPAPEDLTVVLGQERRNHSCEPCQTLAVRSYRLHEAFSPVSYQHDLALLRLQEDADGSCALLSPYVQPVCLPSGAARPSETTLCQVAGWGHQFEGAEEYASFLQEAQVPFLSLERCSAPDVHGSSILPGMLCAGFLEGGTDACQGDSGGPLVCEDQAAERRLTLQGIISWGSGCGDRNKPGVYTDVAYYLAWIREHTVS

| Inhibition of the LTR plasma peptidase activity, in words [1] | Inhibition of the LTR plasma peptidase activity, in words ([1]; listed as CINH) | Inhibition of C1s, in words (C1s) | % Residual activity, Plasma Kallikrein (plasma kallikrein; Table 3, plasma kallikrein 20 nM with ten-fold diluted normal EDTA plasma added, 60 min at 4° C. with C1INH 40 μg/ml or PPACK 11 10 μM) [%] | Inhibition of purified plasma kallikrein activity, in words (plasma kallikrein) | Inhibition of trypsin amidolytic activity, in words (trypsin; concentrations as there) | Inhibition of plasmin amidolytic activity, in words (plasmin; concentrations as there) | % Residual activity, Plasma Kallikrein (plasma kallikrein; Table 2, plasma kallikrein 20 nM, 60 min at 4° C. with LBTI 1 mg/ml, SBTI I mg/ml, aprotinin 0.075 mg/ml, benzamidine 50 mM or Futhan 0.1 mg/ml) [%] | Substance | % Residual activity, LTR 1 ([1]; Table 3, LTR 1 EDTA plasma 10 or 20-fold diluted, 60 min at 4° C. with C1INH 40 μg/ml, bdellin 50 μg/ml, hirudin 50 U/ml, PPACK 11 10 μM or CTI 100 μg/ml) [%] | % Residual activity, LTR 2 ([1]; Table 3, LTR 2 EDTA plasma 10 or 20-fold diluted, 60 min at 4° C. with C1INH 40 μg/ml, bdellin 50 μg/ml, hirudin 50 U/ml, PPACK 11 10 μM or CTI 100 μg/ml) [%] | % Residual activity, LTR 3 ([1]; Table 3, LTR 3 EDTA plasma 10 or 20-fold diluted, 60 min at 4° C. with C1INH 40 μg/ml, bdellin 50 μg/ml, hirudin 50 U/ml, PPACK 11 10 μM or CTI 100 μg/ml) [%] | % Residual activity, C1s (C1s; Table 3, C1s 100 nM with ten-fold diluted normal EDTA plasma added, 60 min at 4° C. with C1INH 40 μg/ml or PPACK 11 10 μM) [%] | % Residual activity, LTR 1 ([1]; Table 2, LTR 1 EDTA plasma diluted 10 or 20-fold, 60 min at 4° C. with LBTI 1 mg/ml, SBTI I mg/ml, aprotinin 0.075 mg/ml, benzamidine 50 mM or Futhan 0.1 mg/ml) [%] | % Residual activity, LTR 2 ([1]; Table 2, LTR 2 EDTA plasma diluted 10 or 20-fold, 60 min at 4° C. with LBTI 1 mg/ml, SBTI I mg/ml, aprotinin 0.075 mg/ml, benzamidine 50 mM or Futhan 0.1 mg/ml) [%] | % Residual activity, LTR 3 ([1]; Table 2, LTR 3 EDTA plasma diluted 10 or 20-fold, 60 min at 4° C. with LBTI 1 mg/ml, SBTI I mg/ml, aprotinin 0.075 mg/ml, benzamidine 50 mM or Futhan 0.1 mg/ml) [%] | % Residual activity, β-FXIIa (β-Factor XIIa (β-FXIIa)) [%] | % Residual activity, C1s (C1s; Table 2, C1s 100 nM, 60 min at 4° C. with LBTI 1 mg/ml, SBTI I mg/ml, aprotinin 0.075 mg/ml, benzamidine 50 mM or Futhan 0.1 mg/ml, % of total activity without inhibitor) [%] | % Residual activity, Trypsin (trypsin; trypsin 16 nM, substrate AGLTR-pNA, 60 min at 4° C. with LBTI 1 mg/ml, SBTI I mg/ml, aprotinin 0.075 mg/ml, benzamidine 50 mM or Futhan 0.1 mg/ml) [%] | % Residual activity, Plasmin (plasmin; plasmin 100 nM, substrate AGLTR-pNA, 60 min at 4° C. with LBTI 1 mg/ml, SBTI I mg/ml, aprotinin 0.075 mg/ml, benzamidine 50 mM or Futhan 0.1 mg/ml) [%] | % Residual activity, Thrombin (thrombin) [%] |
| --- | --- | --- | --- | --- | --- | --- | --- | --- | --- | --- | --- | --- | --- | --- | --- | --- | --- | --- | --- | --- |
| caused only partial inhibition | inhibited partially | only partially inhibited C1s | 37.0 | caused only partial inhibition |  |  |  | C1INH: human C1 esterase inhibitor, purchased from Sigma Chemical | 81.4 | 84.0 | 41.0 | 37.8 |  |  |  |  |  |  |  |  |
| only partially effective |  | but not C1s |  | efficiently inhibited | efficiently inhibited | efficiently inhibited | 3.5 | aprotinin |  |  |  |  | 35.3 | 40.2 | 21.4 | 106.0 | 104.8 | 4.8 | 2.4 | 84.6 |
